In US20030054535A1, “Endoglucanase mutants and mutant hydrolytic depolymerizing enzymes and uses thereof” (priority 1999, published 2003):

How the values were obtained:
[1] = substrate: OC[C@H]1O[C@@H](O[C@H]2[C@H](O)[C@@H](O)[C@H](O[C@H]3[C@H](O)[C@@H](O)C(O)O[C@@H]3CO)O[C@@H]2CO)[C@H](O)[C@@H](O)[C@@H]1O; experiment: purified protein, by the assay type; settings: other: cellotriose, 5 mM acetate pH 5.0, 50 degrees C, 50.0 °C
[2] = substrate: OC[C@H]1O[C@@H](O[C@H]2[C@H](O)[C@@H](O)[C@H](O[C@H]3[C@H](O)[C@@H](O)C(O)O[C@@H]3CO)O[C@@H]2CO)[C@H](O)[C@@H](O)[C@@H]1O; experiment: purified protein, by the assay type; type: biochemical, Acidothermus cellulolyticus; settings: other: cellotriose, 5 mM acetate pH 5.0, 50 degrees C, 50.0 °C
Procedure: Each assay mixture was pre-incubated at 50 degrees C. for 10 min. prior to the addition of 0.00272 micromolar (0. 1092 microgram/mL) enzyme, which was also made up in 5 mM acetate buffer with 10 microgram/mL BSA. The final assay volume was 0.1 mL.
At set-time intervals, an aliquot of the reaction mixture was pulled and immediately analyzed for the release of cellobiose using a Dionex DX300 chromatography system and a Dionex PAD2 pulsed amperometric detector having a gold working electrode. The response of this detector was optimized for the detection of carbohydrates using a waveform defined by the following time and potential settings: t1=420 msec.; EI=+0.05 V; t2=180 msec.; E2=+0.75 V; t3=360 msec.; and E3=−0.15 V. Separation of the reaction products, from the substrate, was achieved on a Dionex CarboPac PA-1 analytical (4×250 mm) column equipped with CarboPac PA-1 (4×50 uard column, 500 mM sodium hydroxide eluent, and a flow rate of 1.5 mL/min. The amount of cellobiose present for each time-point-sample was quantified by comparing the area of the cellobiose peak against a linear calibration curve. The kinetic constants were determined with a double-reciprocal-plot, where the reciprocal of the rate of cellobiose produced was plotted as a function of the inverse of the substrate concentration.
Michaelis-Menten kinetics of the mutant EI enzymes and the native enzyme were determined.

B1: Acidothermus cellulolyticus EI endoglucanase (Cel5A) catalytic domain, native (wild type), SEQ ID NO:3 of U.S. Pat. No. 5,536,655 (Acidothermus cellulolyticus … (protein)
chain: AGGGYWHTSGREILDANNVPVRIAGINWFGFETCNYVVHGLWSRDYRSMLDQIKSLGYNTIRLPYSDDILKPGTMPNSINFYQMNQDLQGLTSLQVMDKIVAYAGQIGLRIILDRHRPDCSGQSALWYTSSVSEATWISDLQALAQRYKGNPTVVGFDLHNEPHDPACWGCGDPSIDWRLAAERAGNAVLSVNPNLLIFVEGVQSYNGDSYWWGGNLQGAGQYPVVLNVPNRLVYSAHDYATSVYPQTWFSDPTFPNNMPGIWNKNWGYLFNQNIAPVWLGEFGTTLQSTTDQTWLKTLVQYLRPTAQYGADSFQWTFWSWNPDSGDTGGILKDDWQTVDTVKDGYLAPIKSSIFDPVG
Km [1]: 350 µM
Vmax [1]: 0.86 µM/min

B2: Acidothermus cellulolyticus EI endoglucanase (Cel5A) catalytic domain variant W42R, SEQ ID NO:1 (Acidothermus cellulolyticus 11B; W83R) (protein)
chain: AGGGYWHTSGREILDANNVPVRIAGINWFGFETCNYVVHGLRSRDYRSMLDQIKSLGYNTIRLPYSDDILKPGTMPNSINFYQMNQDLQGLTSLQVMDKIVAYAGQIGLRIILDRHRPDCSGQSALWYTSSVSEATWISDLQALAQRYKGNPTVVGFDLHNEPHDPACWGCGDPSIDWRLAAERAGNAVLSVNPNLLIFVEGVQSYNGDSYWWGGNLQGAGQYPVVLNVPNRLVYSAHDYATSVYPQTWFSDPTFPNNMPGIWNKNWGYLFNQNIAPVWLGEFGTTLQSTTDQTWLKTLVQYLRPTAQYGADSFQWTFWSWNPDSGDTGGILKDDWQTVDTVKDGYLAPIKSSIFDPV
notes: the protein was genetically truncated near the beginning of the linker peptide; made in house; host or cells: E. coli XL1-blue
Km [2]: 610 µM
Vmax [2]: 0.99 µM/min

B3: Acidothermus cellulolyticus EI endoglucanase (Cel5A) catalytic domain variant Y82R, SEQ ID NO:2 (Acidothermus cellulolyticus 11B; Y123R) (protein)
chain: AGGGYWHTSGREILDANNVPVRIAGINWFGFETCNYVVHGLWSRDYRSMLDQIKSLGYNTIRLPYSDDILKPGTMPNSINFRQMNQDLQGLTSLQVMDKIVAYAGQIGLRIILDRHRPDCSGQSALWYTSSVSEATWISDLQALAQRYKGNPTVVGFDLHNEPHDPACWGCGDPSIDWRLAAERAGNAVLSVNPNLLIFVEGVQSYNGDSYWWGGNLQGAGQYPVVLNVPNRLVYSAHDYATSVYPQTWFSDPTFPNNMPGIWNKNWGYLFNQNIAPVWLGEFGTTLQSTTDQTWLKTLVQYLRPTAQYGADSFQWTFWSWNPDSGDTGGILKDDWQTVDTVKDGYLAPIKSSIFDPV
notes: as for B2
Km [2]: 690 µM
Vmax [2]: 1.5 µM/min

B4: Acidothermus cellulolyticus EI endoglucanase (Cel5A) catalytic domain variant Y245G, SEQ ID NO:3 (Acidothermus cellulolyticus 11B; Y286G) (protein)
chain: AGGGYWHTSGREILDANNVPVRIAGINWFGFETCNYVVHGLWSRDYRSMLDQIKSLGYNTIRLPYSDDILKPGTMPNSINFYQMNQDLQGLTSLQVMDKIVAYAGQIGLRIILDRHRPDCSGQSALWYTSSVSEATWISDLQALAQRYKGNPTVVGFDLHNEPHDPACWGCGDPSIDWRLAAERAGNAVLSVNPNLLIFVEGVQSYNGDSYWWGGNLQGAGQYPVVLNVPNRLVYSAHDYATSVGPQTWFSDPTFPNNMPGIWNKNWGYLFNQNIAPVWLGEFGTTLQSTTDQTWLKTLVQYLRPTAQYGADSFQWTFWSWNPDSGDTGGILKDDWQTVDTVKDGYLAPIKSSIFDPV
notes: the mutant and wild type Cel5A catalytic domains were purified using the purification methods described above; made in house; host or cells: E. coli XL1-blue
Km [2]: 480 µM
Vmax [2]: 0.85 µM/min
